This note sets out measurements from patent publication US20230233707A1 (University of Washington, published 2023).

B1: d2.4 (designed binder)
chain: MSDEEERNELIKRIREAAQRAREAAERTGDPRVRELARELARIAQIAFYLVLHDPSSSEVNEALKAVVKAIELAVRALEAAEKTGDPRVRELAREVVKAAVDVAEAAQAGLNDKLREVAEKALRLAKEALKEGDSTAAELAAEIARLAAKLAGDEDVLKKVKLVLEAIKLVKIVVENAKRKGDDSKEAAEAAVAAFLIVLAAAKLAGIASEEVLELAARLIKEVVENAQREGYDIAVAAIAAAVAFAVVAVAAAAADITSSEVLELAIRLIKEVVENAQREGYVILLAALAAAAAFVVVAAAAKRAGITSSETLKRAIEEIRKRVEEAQREGNDISEAARQAAEEFRKKAEELKGSLEHHHHHH
notes: Homodimer for D2 dihedral cages; C-terminal GS linker and 6xHis tag; also called d2.4 AbC-forming design
B2: i52.3 (designed binder)
chain: MSDEEERNELIKRIREAAQRAREAAERTGDPRVRELARELARLAQRAFYLVLHDPSSSDVNEALKLIVEAIEAAVRALEAAERAGDPELREDAREAVRLAVEAAEEVQRNPSSSTANLLLKAIVALAEALAAAANGDKEKFKKAAESALEIAKRVVEVASKEGDPEAVLEAAKVALRVAELAAKNGDKEVFKKAAESALEVAKRLVEVASKEGDPELVLEAAKVALRVAELAAKNGDKEVFQKAAASAVEVALRLTEVASKEGDSELETEAAKVITRVRELASKQGDAAVAILAETAEVKLEIEESKKRPQSESAKNLILIMQLLINQIRLLVLQIRMLDEQRQEGSLEHHHHHH
notes: Homopentamer for I52 icosahedral cages; C-terminal GS linker and 6xHis tag; also called i52.3 AbC-forming design
B3: i52.6 (designed binder)
chain: MSDEEERNELIKRIREAAQRAREAAERTGDPRVRELARELARLAQRAFYLVLHDPSSSDVNEALKLIVEAIEAAVRALEAAERTGDPKVREEARELVRRAVEAAEEVQRNPSSSEVNEKLKAIVVEIEVKVASLEAKEVTDPDKALKIAKKVIELALEAVKENPSTEALRAVLEAVRLASEVAKRVTDPDKALKIAKLVIELALEAVKEDPSTDALRAVLEAVRLASEVAKRVTDPDKALKIAKLVLELAAEAVKEDPSTDALRAAKEAERLATEVAKRVTDPKKAREIEMLVLKLQMEAILAETEEVKKEIEESKKRPQSESAKNLILIMQLLINQIRLLALQIRMLALQLQEGSLEHHHHHH
notes: Homopentamer for I52 icosahedral cages; C-terminal GS linker and 6xHis tag; also called i52.6 AbC-forming design
B4: d2.7 (designed binder)
chain: MSDEEERNELIKRIREAAQRAREAAERTGDPRVRELARELAKLAQIAFYLVLHDPSAKEVNLALELIVKAIELAVRALEEAEKTGDPHARELAREIVRLAVELARAVAEAAEEAKKQGNSELAEQVARAAQVALEVIKAAITAAKQGDRKAFRAALELVLEVIKAIEEAVKQGNPKKVAEVALKAELIRIVVQNAANKGDDADEAVEAARAAFEIVLAAAQLAGIDSEEVLELAARLIKEVVENAQREGYDIAVAAIAAAVAFAVVAVAAAAADITSSEVLELAIRLIKEVVENAVREGYVILLAALAAAAAFVVVAAAAKRAGITSSETLKRAIEEIRKRVEEAQREGNDISEAARQAAEEFRKKAEELKGSLEHHHHHH
notes: Homodimer for D2 dihedral cages; C-terminal GS linker and 6xHis tag; also called d2.7 AbC-forming design
B5: d2.3 (designed binder)
chain: MSDEEERNELIKRIREAAQRAREAAERTGDPRVRELARELARIAQIAFYLVLHDPSSSEVNEALKAVVKAIELAVRALEEAEKTGDPEVRELAREVVRLAVEVATATAAGENDTLRKVAERALRLAKEAAKRGDAKAAKQAAKIAKLAAANAGDEDVLKKVELVRLAIELVEIVVENAKRKGDDDKEAAEAALAAFRIVLAAAQLAGIASLEVLELALRLIKEVVENAQREGYDIAVAAIAAAVAFAVVAVAAAAADITSSEVLELAIRLIKEVVENAQREGYVILLAALAAAAAFVVVAAAAKRAGITSSETLKRAIEEIRKRVEEAQREGNDISEAARQAAEEFRKKAEELKGSLEHHHHHH
notes: also called d2.3 AbC-forming design

The target of the test is T1, Fc from human IgG1 (human, UniProt P01857-1 104-330 = IgG part).
T1 construct: domain: Fc; also called human IgG1 Fc; IgG1 Fc protein
Put plainly: SEC, design mixed with human IgG1 Fc, overlaid on the single components [panel B]. An excerpt: Synthetic genes encoding designed protein sequences appended with a C-terminal 6× histidine tag were expressed in E. coli. Designs were purified from clarified lysates using immobilized metal affinity chromatography (IMAC), and size exclusion chromatography (SEC) was used as a final purification step. […] Designs were then combined with human IgG1 Fc, and the assemblies were re-purified via SEC. Eight of these AbC-forming designs assembled with Fc into a species that eluted as a monodisperse peak at a volume consistent with the target nanoparticle molecular weight (FIG. 2a-b; 3 D2 dihedral, 2 T32 tetrahedral, 1 O42 octahedral, and 2 I52 icosahedral AbCs). For the i52.6 design, adding 100 mM L-arginine to the assembly buffer prevented aggregation after combining with Fc; all other designs readily self-assembled in Tris-buffered saline.
Designs that produced monodisperse SEC peaks around their expected retention volume were combined with Fc from human IgG1. Fc was produced recombinantly either using standard methods for expression in HEK293T cells or in E. coli (43). Cage components were incubated at 4° C. for at minimum 30 minutes. […] Fc-binding and cage formation were confirmed via SEC; earlier shifts in retention time (compared to either component run alone) show the formation of a larger structure. NS-EM was used as previously described to confirm the structures of designs that passed these steps.
For orientation: SEC sorts molecules by how far they enter the pores of the column.
Turning to B1, the binding result is reported as “binds”.
Regarding B2, the binding result is given as “binds”.
To B3 belongs “binds”.
Consider B4, for which the binding result is listed as “binds”.
B5: the binding result was “binds”.
